Data published in paper PMC9771472, “Tenuous transcriptional threshold of human sex determination. II. SRY exploits water-mediated clamp at the edge of ambiguity”.

Legend:
SRY HMG box WT [1] = molecular target: T1, SRY HMG box WT (human, UniProt Q05066 57-141); test: NMR (1H imino, NOESY, 15N HSQC); CD; 1:1, 25 C, 10 mM K-phosphate pH 7.4, 50 mM KCl (NMR); FRET: 10 mM potassium phosphate, 10 mM Tris-HCl, 140 mM KCl, pH 8.0, 15 and 37 C, 25 nM DNA (Kd); sf-FRET 1 uM complex + 20 uM unlabelled DNA at 10, 15, 25, 37; conditions: protein: recombinant; blunt
SRY HMG box Y72F [2] = molecular target: T2, SRY HMG box Y72F (human, UniProt Q05066 57-141, Y127F); test: as above; conditions: protein: recombinant; blunt
SRY HMG box Y72A = SRY HMG box Y72A (human, UniProt Q05066 57-141, Y127A); test: CD; 25 uM each; least shifted toward A-DNA; FRET: 10 mM potassium phosphate, 10 mM Tris-HCl, 140 mM KCl, pH 8.0, 15 and 37 C, 25 nM DNA (Kd); sf-FRET 1 uM complex + 20 uM unlabelled DNA at 10, 15, 25, 37; conditions: protein: recombinant; blunt
SRY HMG box Y72W [3] = molecular target: T3, SRY HMG box Y72W (human, UniProt Q05066 57-141, Y127W); test: CD; 25 uM each; A-form features in bound DNA; FRET: 10 mM potassium phosphate, 10 mM Tris-HCl, 140 mM KCl, pH 8.0, 15 and 37 C, 25 nM DNA (Kd); sf-FRET 1 uM complex + 20 uM unlabelled DNA at 10, 15, 25, 37; conditions: protein: recombinant; blunt
SRY HMG box Y72W [4] = molecular target: T3, SRY HMG box Y72W; test: steady-state FRET; stopped-flow FRET; high affinity retained; slight koff increase; FRET: 10 mM potassium phosphate, 10 mM Tris-HCl, 140 mM KCl, pH 8.0, 15 and 37 C, 25 nM DNA (Kd); sf-FRET 1 uM complex + 20 uM unlabelled DNA at 10, 15, 25, 37; conditions: protein: recombinant; label: 5'-fluorescein (upper strand); 5'-TAMRA (lower strand), hexanyl linkers; blunt
SRY HMG box Y72F [5] = molecular target: T2, SRY HMG box Y72F; test: steady-state FRET; stopped-flow FRET; native-like affinity; koff about 4-fold faster than WT at 37 C, compensated by kon; FRET: 10 mM potassium phosphate, 10 mM Tris-HCl, 140 mM KCl, pH 8.0, 15 and 37 C, 25 nM DNA (Kd); sf-FRET 1 uM complex + 20 uM unlabelled DNA at 10, 15, 25, 37; conditions: protein: recombinant; label: 5'-fluorescein (upper strand); 5'-TAMRA (lower strand), hexanyl linkers; blunt
SRY HMG box Y72C = SRY HMG box Y72C (human, UniProt Q05066 57-141, Y127C); test: stopped-flow FRET; near-native affinity (Kd from companion paper); koff 26(+/-1.3)-fold faster than WT at 10 C; FRET: 10 mM potassium phosphate, 10 mM Tris-HCl, 140 mM KCl, pH 8.0, 15 and 37 C, 25 nM DNA (Kd); sf-FRET 1 uM complex + 20 uM unlabelled DNA at 10, 15, 25, 37; conditions: protein: recombinant; label: 5'-fluorescein (upper strand); 5'-TAMRA (lower strand), hexanyl linkers; blunt
SRY HMG box Y72H = SRY HMG box Y72H (human, UniProt Q05066 57-141, Y127H); test: stopped-flow FRET; near-native affinity (Kd from companion paper); koff 14(+/-0.38)-fold faster than WT at 10 C; FRET: 10 mM potassium phosphate, 10 mM Tris-HCl, 140 mM KCl, pH 8.0, 15 and 37 C, 25 nM DNA (Kd); sf-FRET 1 uM complex + 20 uM unlabelled DNA at 10, 15, 25, 37; conditions: protein: recombinant; label: 5'-fluorescein (upper strand); 5'-TAMRA (lower strand), hexanyl linkers; blunt
SRY HMG box WT [6] = molecular target: T1, SRY HMG box WT; test: steady-state FRET; reference; Kd values in Table S7 not in material; FRET: 10 mM potassium phosphate, 10 mM Tris-HCl, 140 mM KCl, pH 8.0, 15 and 37 C, 25 nM DNA (Kd); sf-FRET 1 uM complex + 20 uM unlabelled DNA at 10, 15, 25, 37; conditions: protein: recombinant; label: 5'-fluorescein (upper strand); 5'-TAMRA (lower strand), hexanyl linkers; blunt

Measured: binding result

T1 sequence (Q05066 57-141): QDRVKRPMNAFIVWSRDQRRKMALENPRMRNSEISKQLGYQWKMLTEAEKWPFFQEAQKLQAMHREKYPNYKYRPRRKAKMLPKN
T2 sequence (Q05066 57-141 Y127F): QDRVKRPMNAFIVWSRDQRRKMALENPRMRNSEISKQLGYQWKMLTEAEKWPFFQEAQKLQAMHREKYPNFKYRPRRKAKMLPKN
T3 sequence (Q05066 57-141 Y127W): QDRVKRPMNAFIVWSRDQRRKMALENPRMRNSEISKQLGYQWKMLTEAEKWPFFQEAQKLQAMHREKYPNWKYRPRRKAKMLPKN
SRY HMG box Y72C, sequence (Q05066 57-141 Y127C): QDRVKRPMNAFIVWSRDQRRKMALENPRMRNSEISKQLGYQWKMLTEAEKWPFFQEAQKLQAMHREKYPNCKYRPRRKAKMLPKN
SRY HMG box Y72A, sequence (Q05066 57-141 Y127A): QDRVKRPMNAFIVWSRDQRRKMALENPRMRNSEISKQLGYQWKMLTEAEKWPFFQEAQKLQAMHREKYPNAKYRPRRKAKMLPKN
SRY HMG box Y72H, sequence (Q05066 57-141 Y127H): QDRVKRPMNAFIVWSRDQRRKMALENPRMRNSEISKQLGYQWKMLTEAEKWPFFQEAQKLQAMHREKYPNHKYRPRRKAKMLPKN

B1: 15-bp SRY site, unlabelled (dsDNA)
DNA 1: TCGGTGATTGTTCAG
DNA 2: CTGAACAATCACCGA
binds: SRY HMG box WT [1] | SRY HMG box Y72F [2] | SRY HMG box Y72A | SRY HMG box Y72W [3]

B2: 15-bp SRY site, FRET-labelled (dsDNA)
DNA 1: TCGGTGATTGTTCAG
DNA 2: CTGAACAATCACCGA
binds: SRY HMG box Y72W [4] | SRY HMG box Y72F [5] | SRY HMG box Y72C | SRY HMG box Y72H | SRY HMG box WT [6]
